{
  "source": "patent US20220389113A1",
  "about": "“BINDING PROTEINS TO CUB DOMAIN-CONTAINING PROTEIN (CDCP1)” (COMMONWEALTH SCIENTIFIC AND INDUSTRIAL RESEARCH ORGANISATION, priority 2019, published 2022)",
  "molecules": {"B1": {"name": "10D7-MMAE (conjugate)", "VH": "EVQLQQFGAELVKPGASVKISCKASGYSFSDFNIEWLKQSHGKSLEWIGDINPNYDSTNYNQKFKGRATLTVDKSSSTAYMEVRSLTSEDTAVYYCARLGYGYAMDYWGQGTSVTVSS", "VL": "NIVMTQSPQSMSMSVGERVTLSCKASENVGAYVSWFQQKPDQSPKLLILAASNRYTGVPARFIGSGSATDFTLTISSVQAEDLADYHCGQSYTYPYTFGGGTKLEIKRADAAPTVS"}},
  "key": {"OVMZ6-CDCP1 cells": {"system": "OVMZ6-CDCP1 cells", "test": "Colony formation assay, OVMZ6-CDCP1 cells", "assay_type": "cell-based, human", "protocol": "(§1) MMAE-conjugated 10D7 and IgG1K were prepared as described (Nielsen C F, et al., (2017) Oncotarget. 8(27):44605-24.53) and drug-antibody ratio (DAR) determined by reverse phase LC/MS as reported (Basa L. et al., (2013) Methods Mol Biol. 1045:285-93.) on an ABSCIEX Triple TOF spectrometer (AB SCIEX Framingham, Mass.) coupled to a Shimadzu Nexera 1D UHPLC system (Shimadzu, Rydalmere, Australia). ADC peak identification was performed as reported with DAR determined by peak area integration (Hamblett K J, et al., (2004) Clin Cancer Res. 10(20):7063-70; Yao X, et al., (2015) Breast Cancer Res Treat. 153(1):123-33). Colony-formation assays were performed as described (Crowley L C, et al., (2016) Cold Spring Harb Protoc. 2016(8):pdb.prot087171) on cells (100,000/ml) treated with the indicated concentrations of 10D7, 10D7-MMAE, IgG or IgG-MMAE overnight before being lifted and replated in 24-well plates (200 cells/well). After a defined growth period media was removed and cells gently PBS washed before staining with 0.1% crystal violet (Sigma-Aldrich) in 2% ethanol. After 20 minutes and stained cells were scanned (700 nm) on a LiCOR System (Odyssey V3.0 software) with images analyzed using the ColonyArea ImageJ plugin to quantify colony area and intensity (Guzmán C, et al., (2014) PLoS One. 9(3):e92444.). […]"}, "HEY cells": {"system": "HEY cells", "test": "Colony formation assay, HEY cells", "assay_type": "cell-based, human", "protocol": "as §1"}},
  "data": [
    {"molecule": "B1", "values": [
      {"measurement": "half maximum dose required to block colony formation", "setting": "OVMZ6-CDCP1 cells", "result": "~0.07", "unit": "µg/mL"},
      {"measurement": "half maximum dose required to block colony formation", "setting": "HEY cells", "result": "approximately 0.2 μg/ml"}
    ]}
  ]
}
